The values below come from IntAct's records for PubMed 17170699.

First the molecules themselves.
B1: Protein disulfide-isomerase A3 (Homo sapiens), P30101 (parent)
chain: MRLRRLALFPGVALLLAAARLAAASDVLELTDDNFESRISDTGSAGLMLVEFFAPWCGHCKRLAPEYEAAATRLKGIVPLAKVDCTANTNTCNKYGVSGYPTLKIFRDGEEAGAYDGPRTADGIVSHLKKQAGPASVPLRTEEEFKKFISDKDASIVGFFDDSFSEAHSEFLKAASNLRDNYRFAHTNVESLVNEYDDNGEGIILFRPSHLTNKFEDKTVAYTEQKMTSGKIKKFIQENIFGICPHMTEDNKDLIQGKDLLIAYYDVDYEKNAKGSNYWRNRVMMVAKKFLDAGHKLNFAVASRKTFSHELSDFGLESTAGEIPVVAIRTAKGEKFVMQEEFSRDGKALERFLQDYFDGNLKRYLKSEPIPESNDGPVKVVVAENFDEIVNNENKDVLIEFYAPWCGHCKNLEPKYKELGEKLSKDPNIVIAKMDATANDVPSPYEVRGFPTIYFSPANKKLNPKKYEGGRELSDFISYLQREATNPPVIQEEKPKKKKKAQEDL
partner: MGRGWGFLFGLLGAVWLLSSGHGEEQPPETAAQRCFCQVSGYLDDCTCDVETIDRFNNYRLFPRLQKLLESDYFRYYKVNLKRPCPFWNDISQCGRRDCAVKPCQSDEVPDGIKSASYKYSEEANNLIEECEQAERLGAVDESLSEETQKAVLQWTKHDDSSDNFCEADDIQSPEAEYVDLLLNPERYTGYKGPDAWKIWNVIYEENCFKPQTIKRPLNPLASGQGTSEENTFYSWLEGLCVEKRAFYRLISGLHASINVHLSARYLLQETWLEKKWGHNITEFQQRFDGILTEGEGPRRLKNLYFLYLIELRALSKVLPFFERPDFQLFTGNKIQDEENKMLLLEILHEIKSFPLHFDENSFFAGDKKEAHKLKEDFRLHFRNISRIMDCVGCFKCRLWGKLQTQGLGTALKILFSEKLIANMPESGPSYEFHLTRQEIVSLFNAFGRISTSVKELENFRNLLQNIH

In this assay the parent is B1. The following applies: with ero1a_human ERO1A.
Turning to MRLRRLALFPGVALLLAAARLAAASDVLELTDDNFESRISDTGSAGLMLVEFFAPWCGHCKRLAPEYEAAATRLKGIVPLAKVDCTANTNTCNKYGVSGYPTLKIFRDGEEAGAYDGPRTADGIVSHLKKQAGPASVPLRTEEEFKKFISDKDASIVGFFDDSFSEAHSEFLKAASNLRDNYRFAHTNVESLVNEYDDNGEGIILFRPSHLTNKFEDKTVAYTEQKMTSGKIKKFIQENIFGICPHMTEDNKDLIQGKDLLIAYYDVDYEKNAKGSNYWRNRVMMVAKKFLDAGHKLNFAVASRKTFSHELSDFGLESTAGEIPVVAIRTAKGEKFVMQEEFSRDGKALERFLQDYFDGNLKRYLKSEPIPESNDGPVKVVVAENFDEIVNNENKDVLIEFYAPWCGHAKNLEPKYKELGEKLSKDPNIVIAKMDATANDVPSPYEVRGFPTIYFSPANKKLNPKKYEGGRELSDFISYLQREATNPPVIQEEKPKKKKKAQEDL [C409A], the “effect of a mutation on the interaction” value is recorded as “decreasing interaction”.
